These results are taken from paper PMC8906542.

Changes are numbered by the printed parent chain.

Common to all, as to assay: fluorescence polarization
On the technique in general: Polarisation of emitted light reports the rotation of a fluorescent probe.

One data set addresses T1, ErmE R163E (Saccharopolyspora erythraea, UniProt P07287 1-381, R163E).
T1 sequence: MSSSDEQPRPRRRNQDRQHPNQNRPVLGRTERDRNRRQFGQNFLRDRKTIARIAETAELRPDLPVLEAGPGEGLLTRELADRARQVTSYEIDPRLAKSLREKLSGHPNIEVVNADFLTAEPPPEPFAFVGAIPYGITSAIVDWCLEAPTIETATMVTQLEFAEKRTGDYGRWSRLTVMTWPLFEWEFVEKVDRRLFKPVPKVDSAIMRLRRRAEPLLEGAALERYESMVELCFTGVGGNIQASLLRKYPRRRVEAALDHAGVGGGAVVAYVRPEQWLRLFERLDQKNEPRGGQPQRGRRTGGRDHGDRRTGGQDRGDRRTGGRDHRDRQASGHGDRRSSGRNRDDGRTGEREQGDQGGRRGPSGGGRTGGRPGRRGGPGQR

In a further data set the target is T2, ErmE R165A (Saccharopolyspora erythraea, UniProt P07287 1-381, R165A).
T2 sequence: T1 sequence with E163R, R165A

A further data set has as its target T3, ErmE E160W (Saccharopolyspora erythraea, UniProt P07287 1-381, E160W).
T3 sequence: T1 sequence with E160W, E163R

A further data set has as its target T4, ErmE K164M (Saccharopolyspora erythraea, UniProt P07287 1-381, K164M).
T4 sequence: T1 sequence with E163R, K164M

A further data set deals with T5, ErmE K164S (Saccharopolyspora erythraea, UniProt P07287 1-381, K164S).
T5 sequence: T1 sequence with E163R, K164S

The target in another data set is T6, ErmE E160A (Saccharopolyspora erythraea, UniProt P07287 1-381, E160A).
T6 sequence: T1 sequence with E160A, E163R

For orientation: Kd means a measure of binding affinity in units of concentration. On to GGCCUGCGGCAAGACGGAAAGACCAUGGUCCCUAUCUGCCGCAGGAUC (structured_RNA) [V48 Erm substrate (23S rRNA helix 73 mimic, 48 nt)], for which the Kd with ErmE R163E was determined as 3700 nM; with ErmE R165A, 490 ± 50 nM. The binding signal with ErmE E160W was about 4 fold Kd increase vs wt. Moreover, the binding result with ErmE K164M, with ErmE K164S and with ErmE E160A was “binds” throughout.
